No end group written: not given here.
Assays:
[1] = molecular target: T1, BCL6-3C BTB domain (human BCL6 residues 5-129 with C8Q/C67R/C84N) (human, UniProt P41182 5-129); experiment: non-denaturing PAGE mobility shift, constant BTB domain, increasing peptide
[2] = molecular target: T1, BCL6-3C BTB domain (human BCL6 residues …); experiment: Ni-NTA co-purification with the His-tagged thioredoxin fusion, SDS-PAGE, stained gel
[3] = molecular target: T2, PLZF BTB domain (UniProt Q05516 6-126, limits assumed); experiment: SPR
T2 construct: domain: BTB domain; Purified protein; also called BTB^PLZF
T2 sequence (looked up): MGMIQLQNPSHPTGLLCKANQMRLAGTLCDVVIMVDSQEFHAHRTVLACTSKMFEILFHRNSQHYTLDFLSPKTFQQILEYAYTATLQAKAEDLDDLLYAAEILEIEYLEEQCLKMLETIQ

[4] = molecular target: T1, BCL6-3C BTB domain (human BCL6 residues …); experiment: SPR, biotinylated peptide on streptavidin chip, BCL6-3C BTB domain injected
[5] = molecular target: T1, BCL6-3C BTB domain (human BCL6 residues …); experiment: co-purification
[6] = molecular target: BCL6-3C BTB domain H116A (human, UniProt P41182 5-129); experiment: co-purification
[7] = molecular target: BCL6-3C BTB domain N21K (human, UniProt P41182 5-129); experiment: co-purification
[8] = molecular target: T1, BCL6-3C BTB domain (human BCL6 residues …); experiment: native-gel mobility shift assay
[9] = molecular target: T2, PLZF BTB domain; experiment: ITC

B1: BCoR 498-514 peptide (BCoR BBD) (peptide)
peptide: RSEIISTAPSSWVVPGP
notes: Purified peptide used for co-crystallisation; also called BCoR-BBD peptide; BCoR peptide
B1: binds [1].

B2: SMRT-BBD with residues 1427-1430 replaced by alanines (EIPR->AAAA) (peptide)
peptide: LVATVKEAGRSIHAAAA
notes: also called AAAA mutant; not shown: N-terminal fusion or tag residues depend on the assay (His-Trx fusion in co-purification, biotinylated tag remnant in SP)
B2: no binding [2].

B3: SMRT-BBD with the SI to IS substitution at residues 1424-1425 (peptide)
peptide: LVATVKEAGRISHEIPR
notes: The text calls it SMRT-BBD; also called IS mutant; not shown: N-terminal fusion or tag residues depend on the assay (His-Trx fusion in co-purification, biotinylated tag remnant in SP)
B3: no binding [2].

B4: SMRT^1414-1441 peptide (fragment d), biotinylated, immobilised for SPR (peptide, UniProt Q9Y618 1414-1441, looked up)
peptide: LVATVKEAGRSIHEIPREELRHTPELPL
modifications: also: biotinylated lysine in N-terminal tag residues (not given here)
notes: not shown: N-terminal residues left after TEV cleavage (BirA biotinylation motif, thrombin site)
In the case of B4, the binding result [3] is reported as “no binding” and the Kd [4] is reported as 15.8 nM.

B5: hexahistidine tagged fusion protein containing BCoR residues 112 to 342 (other, UniProt Q6W2J9 112-342, looked up)
chain: LGFSSERNPEMQFKPNTPETVEASAVSGKPPNGFSAIYKTPPGIQKSAVATAEALGLDRPASDKQSPLNINGASYLRLPWVNPYMEGATPAIYPFLDSPNKYSLNMYKALLPQQSYSLAQPLYSPVCTNGERFLYLPPPHYVGPHIPSSLASPMRLSTPSASPAIPPLVHCADKSLPWKMGVSPGNPVDSHAYPHIQNSKQPRVPSAKAVTSGLPGDTALLLPPSPRPSPR
notes: not shown: hexahistidine tagged fusion partner
B5: no binding [5].

B6: hexahistidine tagged fusion protein containing BCoR residues 542 to 753 (other, UniProt Q6W2J9 542-753, looked up)
chain: SSCPRMGGTDAVITNVSGSVSSAGRPASASPAPNANADGTKTSRSSVETTPSVIQHVGQPPATPAKHSSSTSSKGAKASNPEPSFKANENGLPPSSIFLSPNEAFRSPPIPYPRSYLPYPAPEGIAVSPLSLHGKGPVYPHPVLLPNGSLFPGHLAPKPGLPYGLPTGRPEFVTYQDALGLGMVHPMLIPHTPIEITKEEKPERRSRSHERA
notes: as for B5
B6: no binding [5].

B7: hexahistidine tagged fusion protein containing BCoR residues 317 to 547 (other, UniProt Q6W2J9 317-547, looked up)
chain: SAKAVTSGLPGDTALLLPPSPRPSPRVHLPTQPAADTYSEFHKHYARISTSPSVALSKPYMTVSSEFPAARLSNGKYPKAPEGGEGAQPVPGHARKTAVQDRKDGSSPPLLEKQTVTKDVTDKPLDLSSKVVDVDASKADHMKKMAPTVLVHSRAGSGLVLSGSEIPKETLSPPGNGCAIYRSEIISTAPSSWVVPGPSPNEENNGKSMSLKNKALDWAIPQQRSSSCPRM
notes: as for B5
B7: no binding [6]; no binding [7].

B8: BCoR peptide with the S507A/W509A/V511A triple mutation (peptide)
peptide: RSEIISTAPASAVAPGP
B8: no binding [8].

B9: BCoR peptide with the S507W/W509S double mutation (peptide)
peptide: RSEIISTAPWSSVVPGP
B9: no binding [8].

B10: SMRT^1414-1430 peptide, biotinylated, immobilised for SPR (peptide)
peptide: LVATVKEAGRSIHEIPR
modifications: also: biotinylated lysine 8 residues N-terminal to the peptide, not in the given chain
notes: SPR form of the minimal fragment; not shown: N-terminal residues left after TEV cleavage (BirA biotinylation motif, thrombin site)
B10: no binding [3].

B11: SMRT^1417-1441 peptide, biotinylated, immobilised for SPR (peptide, UniProt Q9Y618 1417-1441, looked up)
peptide: TVKEAGRSIHEIPREELRHTPELPL
modifications: also: biotinylated lysine in N-terminal tag residues (not given here)
notes: as for B4
B11: no binding [3].

B12: SMRT^1414-1430 peptide (SMRT-BBD), no additional N-terminal residues (peptide)
peptide: LVATVKEAGRSIHEIPR
notes: Made by thrombin digestion of the fusion protein
B12: no binding [9].

— patent publication US20090018083A1 (ALBERT EINSTEIN SCHOOL OF MEDICINE OF YESHIVA UNIVERSITY, published 2009)
